Experiments:
Experiment in all cases: SPR; Biacore X100; biotinylated histone 3 peptides immobilised on a Biotin CAPture chip (about 10 RU); PHD finger flowed at 10 μl/min, 0.39-400 μM; 300 mM NaCl, 10 mM Tris pH 8, 0.05% Tween 20, 0.1 mM TCEP; equilibrium binding isotherm model
[1] = biological target: histone 3 peptide dimethylated at lysine 4 (H3K4me2)
[2] = biological target: histone 3 peptide monomethylated at lysine 4 (H3K4me1)
[3] = biological target: histone 3 peptide trimethylated at lysine 4 (H3K4me3)

MtING1PHD, PHD finger of Medicago ING1 (M180-K247) (domain or fragment)
Kd [1]: 54.5 µM | Kd [2]: 126 µM | Kd [3]: 31 µM

From paper PMC9828230
